Our source for the ratio to parent and Kd values is publication PMC5454376, “Molecular mechanism of Gαi activation by non-GPCR proteins with a Gα-Binding and Activating motif” (Nature Communications, 2017).

To fix the notation:
B1: Human His-Gαi3 WT [human] / Fluorescein-labelled RGS12 GoLoco peptide (residues 1,185–1,221) [modified: 5,6-carboxyfluorescein coupled to the resin-bound peptide after chain elongation; 5,6-carboxyfluorescein coupled to the … (parent)
chain 1: MGCTLSAEDKAAVERSKMIDRNLREDGEKAAKEVKLLLLGAGESGKSTIVKQMKIIHEDGYSEDECKQYKVVVYSNTIQSIIAIIRAMGRLKIDFGEAARADDARQLFVLAGSAEEGVMTPELAGVIKRLWRDGGVQACFSRSREYQLNDSASYYLNDLDRISQSNYIPTQQDVLRTRVKTTGIVETHFTFKDLYFKMFDVGGQRSERKKWIHCFEGVTAIIFCVALSDYDLVLAEDEEMNRMHESMKLFDSICNNKWFTETSIILFLNKKDLFEEKIKRSPLTICYPEYTGSNTYEEAAAYIQCQFEDLNRRKDTKEIYTHFTCATDTKNVQFVFDAVTDVIIKNNLKECGLY
chain 2: DEAEEFFELISKAQSNRADDQRGLLRKEDLVLPEFLR
B2: Human His-Gαi3 WT [human] / Fluorescein-labelled GIV peptide (residues 1,671–1,701) [modified: 5,6-carboxyfluorescein coupled to the resin-bound peptide after chain elongation; 5,6-carboxyfluorescein coupled to the resin-bound … (parent)
chain 1: B1 chain 1
chain 2: KTGSPGSEVVTLQQFLEESNKLTSVQIKSSS
B3: Human His-Gαi3 WT [human] / Fluorescein-labelled DAPLE peptide (residues 1,662–1,695) [modified: 5,6-carboxyfluorescein coupled to the resin-bound peptide after chain elongation; 5,6-carboxyfluorescein coupled to the … (parent)
chain 1: B1 chain 1
chain 2: SASPSSEMVTLEEFLEESNRSSPTHDTPSCRDDL

As usually defined, the Kd is a measure of binding affinity in units of concentration.

In one test the parent is B1. The test can be described thus: fluorescence polarisation. As to conditions: with Fluorescein-labelled RGS12 GoLoco peptide (residues 1,185–1,221) [modified: 5,6-carboxyfluorescein coupled to the resin-bound peptide after chain elongation.
As to chain 1 MGCTLSAEDKAAVERSKMIDRNLREDGEKAAKEVKLLLLGAGESGKSTIVKQMKIIHEDGYSEDECKQYKVVVYSNTIQSIIAIIRAMGRLKIDFGEAARADDARQLFVLAGSAEEGVMTPELAGVIKRLWRDGGVQACFSRSREYQLNDSASYYLNDLDRISQSNYIPTQQDVLRTRVKTTGIVETHFTFKDLYFKMFDVGGQRSERKKWIHCAEGVTAIIFCVALSDYDLVLAEDEEMNRMHESMKLFDSICNNKWFTETSIILFLNKKDLFEEKIKRSPLTICYPEYTGSNTYEEAAAYIQCQFEDLNRRKDTKEIYTHFTCATDTKNVQFVFDAVTDVIIKNNLKECGLY [chain 1 F215A], the ratio to parent was found to be 10.1.

With chain 1 MGCTLSAEDKAAVERSKMIDRNLREDGEKAAKEVKLLLLGAGESGKSTIVKQMKIIHEDGYSEDECKQYKVVVYSNTIQSIIAIIRAMGRLKIDFGEAARADDARQLFVLAGSAEEGVMTPELAGVIKRLWRDGGVQACFSRSREYQLNDSASYYLNDLDRISQSNYIPTQQDVLRTRVKTTGAVETHFTFKDLYFKMFDVGGQRSERKKWIHCFEGVTAIIFCVALSDYDLVLAEDEEMNRMHESMKLFDSICNNKWFTETSIILFLNKKDLFEEKIKRSPLTICYPEYTGSNTYEEAAAYIQCQFEDLNRRKDTKEIYTHFTCATDTKNVQFVFDAVTDVIIKNNLKECGLY [chain 1 I184A], the ratio to parent is 1.53.

chain 1 MGCTLSAEDKAAVERSKMIDRNLREDGEKAAKEVKLLLLGAGESGKSTIVKQMKIIHEDGYSEDECKQYKVVVYSNTIQSIIAIIRAMGRLKIDFGEAARADDARQLFVLAGSAEEGVMTPELAGVIKRLWRDGGVQACFSRSREYQLNDSASYYLNDLDRISQSNYIPTQQDVLRTRVKTTGIVETHFTFKDLYFKMFDVGGQRSERKKWIHCFEGVTAIIFCVALSDYDLVLAEDEEMNRMHESMKLFDSICNNKWATETSIILFLNKKDLFEEKIKRSPLTICYPEYTGSNTYEEAAAYIQCQFEDLNRRKDTKEIYTHFTCATDTKNVQFVFDAVTDVIIKNNLKECGLY [chain 1 F259A]: the ratio to parent stood at 3.43.

Regarding chain 1 MGCTLSAEDKAAVERSKMIDRNLREDGEKAAKEVKLLLLGAGESGKSTIVKQMKIIHEDGYSEDECKQYKVVVYSNTIQSIIAIIRAMGRLKIDFGEAARADDARQLFVLAGSAEEGVMTPELAGVIKRLWRDGGVQACFSRSREYQLNDSASYYLNDLDRISQSNYIPTQQDVLRTRVKTTGIVETHFTFKDLYFKMFDVGGQRSERKKWIHCFEGVTAIIFCVALSDYDLVLAEDEEMNRMHESMKLFDSICNNAWFTETSIILFLNKKDLFEEKIKRSPLTICYPEYTGSNTYEEAAAYIQCQFEDLNRRKDTKEIYTHFTCATDTKNVQFVFDAVTDVIIKNNLKECGLY [chain 1 K257A], the ratio to parent came out at 1.58.

As to chain 1 MGCTLSAEDKAAVERSKMIDRNLREDGEKAAKEVKLLLLGARESGKSTIVKQMKIIHEDGYSEDECKQYKVVVYSNTIQSIIAIIRAMGRLKIDFGEAARADDARQLFVLAGSAEEGVMTPELAGVIKRLWRDGGVQACFSRSREYQLNDSASYYLNDLDRISQSNYIPTQQDVLRTRVKTTGIVETHFTFKDLYFKMFDVGGQRSERKKWIHCFEGVTAIIFCVALSDYDLVLAEDEEMNRMHESMKLFDSICNNKWFTETSIILFLNKKDLFEEKIKRSPLTICYPEYTGSNTYEEAAAYIQCQFEDLNRRKDTKEIYTHFTCATDTKNVQFVFDAVTDVIIKNNLKECGLY [chain 1 G42R], the Kd amounted to 98 nM and the ratio to parent turned out to be 1.81.

Take chain 1 MGCTLSAEDKAAVERSKMIDRNLREDGEKAAKEVKALLLGAGESGKSTIVKQMKIIHEDGYSEDECKQYKVVVYSNTIQSIIAIIRAMGRLKIDFGEAARADDARQLFVLAGSAEEGVMTPELAGVIKRLWRDGGVQACFSRSREYQLNDSASYYLNDLDRISQSNYIPTQQDVLRTRVKTTGIVETHFTFKDLYFKMFDVGGQRSERKKWIHCFEGVTAIIFCVALSDYDLVLAEDEEMNRMHESMKLFDSICNNKWFTETSIILFLNKKDLFEEKIKRSPLTICYPEYTGSNTYEEAAAYIQCQFEDLNRRKDTKEIYTHFTCATDTKNVQFVFDAVTDVIIKNNLKECGLY [chain 1 L36A]: the ratio to parent came out at 2.18.

chain 1 MGCTLSAEDKAAVERSKMIDRNLREDGEKAAKEVALLLLGAGESGKSTIVKQMKIIHEDGYSEDECKQYKVVVYSNTIQSIIAIIRAMGRLKIDFGEAARADDARQLFVLAGSAEEGVMTPELAGVIKRLWRDGGVQACFSRSREYQLNDSASYYLNDLDRISQSNYIPTQQDVLRTRVKTTGIVETHFTFKDLYFKMFDVGGQRSERKKWIHCFEGVTAIIFCVALSDYDLVLAEDEEMNRMHESMKLFDSICNNKWFTETSIILFLNKKDLFEEKIKRSPLTICYPEYTGSNTYEEAAAYIQCQFEDLNRRKDTKEIYTHFTCATDTKNVQFVFDAVTDVIIKNNLKECGLY [chain 1 K35A]: the ratio to parent was found to be 2.79.

The variants in another test derive from B2. The experiment in a line: fluorescence polarisation. As to conditions: with Fluorescein-labelled GIV peptide (residues 1,671–1,701) [modified: 5,6-carboxyfluorescein coupled to the resin-bound peptide after chain elongation. (In general: Fluorescence polarisation rises when a labelled molecule tumbles more slowly, as on binding a larger partner.)
For the variant chain 1 MGCTLSAEDKAAVERSKMIDRNLREDGEKAAKEVKLLLLGAGESGKSTIVKQMKIIHEDGYSEDECKQYKVVVYSNTIQSIIAIIRAMGRLKIDFGEAARADDARQLFVLAGSAEEGVMTPELAGVIKRLWRDGGVQACFSRSREYQLNDSASYYLNDLDRISQSNYIPTQQDVLRTRVKTTGIVETHFTFKDLYFKMFDVGGQRSERKKWIHCFEGVTAIIFCVALSDYDLVLAEDEEMNRMHESMKLFDSICNNKFFTETSIILFLNKKDLFEEKIKRSPLTICYPEYTGSNTYEEAAAYIQCQFEDLNRRKDTKEIYTHFTCATDTKNVQFVFDAVTDVIIKNNLKECGLY [chain 1 W258F], the ratio to parent is 3.59.

The variants in a further test derive from B3. The experiment in a line: fluorescence polarisation. As to conditions: with Fluorescein-labelled DAPLE peptide (residues 1,662–1,695) [modified: 5,6-carboxyfluorescein coupled to the resin-bound peptide after chain elongation.
In the case of chain 1 MGCTLSAEDKAAVERSKMIDRNLREDGEKAAKEVKLLLLGAGESGKSTIVKQMKIIHEDGYSEDECKQYKVVVYSNTIQSIIAIIRAMGRLKIDFGEAARADDARQLFVLAGSAEEGVMTPELAGVIKRLWRDGGVQACFSRSREYQLNDSASYYLNDLDRISQSNYIPTQQDVLRTRVKTTGIVETHFTFKDLYFKMFDVGGQRSERKKWIHCFEGVTAIIFCVALSDYDLVLAEDEEMNRMHESMKLFDSICNNKWATETSIILFLNKKDLFEEKIKRSPLTICYPEYTGSNTYEEAAAYIQCQFEDLNRRKDTKEIYTHFTCATDTKNVQFVFDAVTDVIIKNNLKECGLY [chain 1 F259A], the ratio to parent stood at 2.
